Data: patent US20180118786A1 (ECOLE POLYTECHNIQUE FEDERALE DE LAUSANNE EPFL, published 2018)
Values belong to the binder of their own block, whether it stands above or below them. Starred links: 1 amine or outer side, 2 acyl side, 3 side chain; linkers in the order of their positions; H or OH if unused. Positions of bridges follow the written chain, without caps; N, C: chain ends. Non-standard residues stand in square brackets, D forms with d. No end group written: not given here. TATA = O=C(CC[*:1])N1CN(C(=O)CC[*:2])CN(C(=O)CC[*:3])C1; Phe(4-guanidino) = N=C(N)Nc1ccc(C[C@H](N)C(=O)O)cc1; hArg = N=C(N)NCCCC[C@H](N)C(=O)O; Agb = N=C(N)NCC[C@H](N)C(=O)O

Assays:
[1] = biological target: T1, human β-FXIIa (HFXIIAB; Molecular Innovations) (human, UniProt P00748 354-362; P00748 373-615, limits assumed); assay: protease inhibition assay
T1 construct: domain: catalytic domain; Bought; also called human b-FXIIa; human FXIIa
T1 sequence (P00748 373-615 limits assumed, one chain of several): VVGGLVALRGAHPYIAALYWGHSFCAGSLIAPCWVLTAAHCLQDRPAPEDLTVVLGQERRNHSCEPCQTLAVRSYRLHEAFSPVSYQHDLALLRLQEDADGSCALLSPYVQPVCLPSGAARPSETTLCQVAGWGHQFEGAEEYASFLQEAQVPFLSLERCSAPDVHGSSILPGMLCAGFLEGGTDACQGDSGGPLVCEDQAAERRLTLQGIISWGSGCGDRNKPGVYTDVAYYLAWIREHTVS

[2] = biological target: T1, human β-FXIIa (HFXIIAB; Molecular …); assay: protease inhibition assay, fluorogenic substrate

B1: peptide 41 (peptide 2, Arg4 to 4-guanidinophenylalanine) (peptide)
peptide: RCF[Phe(4-guanidino)]LPCRQLRCRW-NH2
modifications: linker 2-7-12 via TATA; N-terminus assumed
SMILES: CC(C)C[C@@H]1NC(=O)[C@H](CCC(N)=O)NC(=O)[C@H](CCCNC(=N)N)NC(=O)[C@@H]2CSCCC(=O)N3CN(CN(C3)C(=O)CCSC[C@H](NC(=O)[C@@H](N)CCCNC(=N)N)C(=O)N[C@@H](Cc3ccccc3)C(=O)N[C@@H](Cc3ccc(NC(=N)N)cc3)C(=O)N[C@@H](CC(C)C)C(=O)N3CCC[C@H]3C(=O)N2)C(=O)CCSC[C@@H](C(=O)N[C@@H](CCCNC(=N)N)C(=O)N[C@@H](Cc2c[nH]c3ccccc23)C(N)=O)NC(=O)[C@H](CCCNC(=N)N)NC1=O
notes: Number tied to residue by the order of the list
- fold reduction of affinity vs peptide 2 [1]: ≥ 5 fold

Binder: H-RCF[homolysine]LPCRQLRCRW-NH2 (linker 2-7-12 via TATA) [peptide 38 (peptide 2, Arg4 to homolysine)]
- fold reduction of affinity vs peptide 2 [1]: ≥ 5 fold

B2: peptide 64 (FXII618, Arg1 to isoleucine) (peptide)
peptide: ICFRLPCRQLRCR-NH2
modifications: linker 2-7-12 via TATA; N-terminus assumed
SMILES: CC[C@H](C)[C@H](N)C(=O)N[C@H]1CSCCC(=O)N2CN3CN(C2)C(=O)CCSC[C@H](NC(=O)[C@@H]2CCCN2C(=O)[C@H](CC(C)C)NC(=O)[C@H](CCCNC(=N)N)NC(=O)[C@H](Cc2ccccc2)NC1=O)C(=O)N[C@@H](CCCNC(=N)N)C(=O)N[C@@H](CCC(N)=O)C(=O)N[C@@H](CC(C)C)C(=O)N[C@@H](CCCNC(=N)N)C(=O)N[C@H](C(=O)N[C@@H](CCCNC(=N)N)C(N)=O)CSCCC3=O
notes: as for B1
- fold reduction of affinity vs peptide 1 [1]: > 5 fold

B8: peptide 40 (peptide 2, Arg4 to norarginine) (peptide)
peptide: RCF[Agb]LPCRQLRCRW-NH2
modifications: linker 2-7-12 via TATA
notes: as for B1
- fold reduction of affinity vs peptide 2 [1]: ≥ 5 fold

B9: peptide 39 (peptide 2, Arg4 to homoarginine) (peptide)
peptide: H-RCF[hArg]LPCRQLRCRW-NH2
modifications: linker 2-7-12 via TATA
notes: as for B1
- fold reduction of affinity vs peptide 2 [1]: ≥ 5 fold

B10: peptide 7 (peptide 2, Phe3 to valine) (peptide)
peptide: RCVRLPCRQLRCRW-NH2
modifications: linker 2-7-12 via TATA; N-terminus assumed
SMILES: CC(C)C[C@@H]1NC(=O)[C@H](CCC(N)=O)NC(=O)[C@H](CCCNC(=N)N)NC(=O)[C@@H]2CSCCC(=O)N3CN(CN(C3)C(=O)CCSC[C@H](NC(=O)[C@@H](N)CCCNC(=N)N)C(=O)N[C@@H](C(C)C)C(=O)N[C@@H](CCCNC(=N)N)C(=O)N[C@@H](CC(C)C)C(=O)N3CCC[C@H]3C(=O)N2)C(=O)CCSC[C@@H](C(=O)N[C@@H](CCCNC(=N)N)C(=O)N[C@@H](Cc2c[nH]c3ccccc23)C(N)=O)NC(=O)[C@H](CCCNC(=N)N)NC1=O
notes: as for B1
- fold reduction of activity vs peptide 2 [1]: > 10 fold

B11: peptide 11 (peptide 2, Leu5 to valine) (peptide)
peptide: RCFRVPCRQLRCRW-NH2
modifications: linker 2-7-12 via TATA; N-terminus assumed
SMILES: CC(C)C[C@@H]1NC(=O)[C@H](CCC(N)=O)NC(=O)[C@H](CCCNC(=N)N)NC(=O)[C@@H]2CSCCC(=O)N3CN(CN(C3)C(=O)CCSC[C@H](NC(=O)[C@@H](N)CCCNC(=N)N)C(=O)N[C@@H](Cc3ccccc3)C(=O)N[C@@H](CCCNC(=N)N)C(=O)N[C@@H](C(C)C)C(=O)N3CCC[C@H]3C(=O)N2)C(=O)CCSC[C@@H](C(=O)N[C@@H](CCCNC(=N)N)C(=O)N[C@@H](Cc2c[nH]c3ccccc23)C(N)=O)NC(=O)[C@H](CCCNC(=N)N)NC1=O
- fold reduction of affinity vs peptide 2 [1]: > 50 fold

B12: peptide 12 (peptide 2, Leu5 to isoleucine) (peptide)
peptide: RCFRIPCRQLRCRW-NH2
modifications: linker 2-7-12 via TATA; N-terminus assumed
SMILES: CC[C@H](C)[C@@H]1NC(=O)[C@H](CCCNC(=N)N)NC(=O)[C@H](Cc2ccccc2)NC(=O)[C@@H](NC(=O)[C@@H](N)CCCNC(=N)N)CSCCC(=O)N2CN3CN(C2)C(=O)CCSC[C@H](NC(=O)[C@@H]2CCCN2C1=O)C(=O)N[C@@H](CCCNC(=N)N)C(=O)N[C@@H](CCC(N)=O)C(=O)N[C@@H](CC(C)C)C(=O)N[C@@H](CCCNC(=N)N)C(=O)N[C@H](C(=O)N[C@@H](CCCNC(=N)N)C(=O)N[C@@H](Cc1c[nH]c2ccccc12)C(N)=O)CSCCC3=O
- fold reduction of affinity vs peptide 2 [1]: > 50 fold

B13: peptide 21 (peptide 2, Gln9 to aspartate) (peptide)
peptide: RCFRLPCRDLRCRW-NH2
modifications: linker 2-7-12 via TATA; N-terminus assumed
SMILES: CC(C)C[C@@H]1NC(=O)[C@H](CC(=O)O)NC(=O)[C@H](CCCNC(=N)N)NC(=O)[C@@H]2CSCCC(=O)N3CN(CN(C3)C(=O)CCSC[C@H](NC(=O)[C@@H](N)CCCNC(=N)N)C(=O)N[C@@H](Cc3ccccc3)C(=O)N[C@@H](CCCNC(=N)N)C(=O)N[C@@H](CC(C)C)C(=O)N3CCC[C@H]3C(=O)N2)C(=O)CCSC[C@@H](C(=O)N[C@@H](CCCNC(=N)N)C(=O)N[C@@H](Cc2c[nH]c3ccccc23)C(N)=O)NC(=O)[C@H](CCCNC(=N)N)NC1=O
- fold reduction of activity vs peptide 2 [1]: 54 fold

B14: peptide 26 (peptide 2, Leu10 to isoleucine) (peptide)
peptide: RCFRLPCRQIRCRW-NH2
modifications: linker 2-7-12 via TATA; N-terminus assumed
SMILES: CC[C@H](C)[C@@H]1NC(=O)[C@H](CCC(N)=O)NC(=O)[C@H](CCCNC(=N)N)NC(=O)[C@@H]2CSCCC(=O)N3CN(CN(C3)C(=O)CCSC[C@H](NC(=O)[C@@H](N)CCCNC(=N)N)C(=O)N[C@@H](Cc3ccccc3)C(=O)N[C@@H](CCCNC(=N)N)C(=O)N[C@@H](CC(C)C)C(=O)N3CCC[C@H]3C(=O)N2)C(=O)CCSC[C@@H](C(=O)N[C@@H](CCCNC(=N)N)C(=O)N[C@@H](Cc2c[nH]c3ccccc23)C(N)=O)NC(=O)[C@H](CCCNC(=N)N)NC1=O
- fold reduction of activity vs peptide 2 [1]: 8 fold

B15: peptide 8 (peptide 2, Phe3 to isoleucine) (peptide)
peptide: RCIRLPCRQLRCRW-NH2
modifications: linker 2-7-12 via TATA; N-terminus assumed
SMILES: CC[C@H](C)[C@@H]1NC(=O)[C@@H](NC(=O)[C@@H](N)CCCNC(=N)N)CSCCC(=O)N2CN3CN(C2)C(=O)CCSC[C@H](NC(=O)[C@@H]2CCCN2C(=O)[C@H](CC(C)C)NC(=O)[C@H](CCCNC(=N)N)NC1=O)C(=O)N[C@@H](CCCNC(=N)N)C(=O)N[C@@H](CCC(N)=O)C(=O)N[C@@H](CC(C)C)C(=O)N[C@@H](CCCNC(=N)N)C(=O)N[C@H](C(=O)N[C@@H](CCCNC(=N)N)C(=O)N[C@@H](Cc1c[nH]c2ccccc12)C(N)=O)CSCCC3=O
notes: as for B1
- fold reduction of activity vs peptide 2 [1]: > 10 fold

Next, values leading:

- Ki [2]: 27.4 nM
B3: peptide 67 (FXII618, Arg1 to lysine) (peptide)
peptide: KCFRLPCRQLRCR-NH2
modifications: linker 2-7-12 via TATA; N-terminus assumed
SMILES: CC(C)C[C@@H]1NC(=O)[C@H](CCC(N)=O)NC(=O)[C@H](CCCNC(=N)N)NC(=O)[C@@H]2CSCCC(=O)N3CN(CN(C3)C(=O)CCSC[C@H](NC(=O)[C@@H](N)CCCCN)C(=O)N[C@@H](Cc3ccccc3)C(=O)N[C@@H](CCCNC(=N)N)C(=O)N[C@@H](CC(C)C)C(=O)N3CCC[C@H]3C(=O)N2)C(=O)CCSC[C@@H](C(=O)N[C@@H](CCCNC(=N)N)C(N)=O)NC(=O)[C@H](CCCNC(=N)N)NC1=O

- fold reduction of affinity vs FXII618 [1]: ~200 fold
B4: peptide 85 (FXII618, Gln9 to glycine) (peptide)
peptide: RCFRLPCRGLRCR-NH2
modifications: linker 2-7-12 via TATA; N-terminus assumed
SMILES: CC(C)C[C@@H]1NC(=O)CNC(=O)[C@H](CCCNC(=N)N)NC(=O)[C@@H]2CSCCC(=O)N3CN(CN(C3)C(=O)CCSC[C@H](NC(=O)[C@@H](N)CCCNC(=N)N)C(=O)N[C@@H](Cc3ccccc3)C(=O)N[C@@H](CCCNC(=N)N)C(=O)N[C@@H](CC(C)C)C(=O)N3CCC[C@H]3C(=O)N2)C(=O)CCSC[C@@H](C(=O)N[C@@H](CCCNC(=N)N)C(N)=O)NC(=O)[C@H](CCCNC(=N)N)NC1=O

- fold reduction of affinity vs peptide 1 [1]: > 5 fold
B5: peptide 66 (FXII618, Arg1 to alanine) (peptide)
peptide: ACFRLPCRQLRCR-NH2
modifications: linker 2-7-12 via TATA; N-terminus assumed
SMILES: CC(C)C[C@@H]1NC(=O)[C@H](CCC(N)=O)NC(=O)[C@H](CCCNC(=N)N)NC(=O)[C@@H]2CSCCC(=O)N3CN(CN(C3)C(=O)CCSC[C@@H](C(=O)N[C@@H](CCCNC(=N)N)C(N)=O)NC(=O)[C@H](CCCNC(=N)N)NC1=O)C(=O)CCSC[C@H](NC(=O)[C@H](C)N)C(=O)N[C@@H](Cc1ccccc1)C(=O)N[C@@H](CCCNC(=N)N)C(=O)N[C@@H](CC(C)C)C(=O)N1CCC[C@H]1C(=O)N2
notes: as for B1

- fold reduction of affinity vs FXII618 [1]: ~200 fold
B6: peptide 87 (FXII618, Leu10 to glycine) (peptide)
peptide: RCFRLPCRQGRCR-NH2
modifications: linker 2-7-12 via TATA; N-terminus assumed
SMILES: CC(C)C[C@@H]1NC(=O)[C@H](CCCNC(=N)N)NC(=O)[C@H](Cc2ccccc2)NC(=O)[C@@H](NC(=O)[C@@H](N)CCCNC(=N)N)CSCCC(=O)N2CN3CN(C2)C(=O)CCSC[C@H](NC(=O)[C@@H]2CCCN2C1=O)C(=O)N[C@@H](CCCNC(=N)N)C(=O)N[C@@H](CCC(N)=O)C(=O)NCC(=O)N[C@@H](CCCNC(=N)N)C(=O)N[C@H](C(=O)N[C@@H](CCCNC(=N)N)C(N)=O)CSCCC3=O

- fold reduction of affinity vs peptide 1 [1]: > 5 fold
B7: peptide 65 (FXII618, Arg1 to valine) (peptide)
peptide: VCFRLPCRQLRCR-NH2
modifications: linker 2-7-12 via TATA; N-terminus assumed
SMILES: CC(C)C[C@@H]1NC(=O)[C@H](CCC(N)=O)NC(=O)[C@H](CCCNC(=N)N)NC(=O)[C@@H]2CSCCC(=O)N3CN(CN(C3)C(=O)CCSC[C@H](NC(=O)[C@@H](N)C(C)C)C(=O)N[C@@H](Cc3ccccc3)C(=O)N[C@@H](CCCNC(=N)N)C(=O)N[C@@H](CC(C)C)C(=O)N3CCC[C@H]3C(=O)N2)C(=O)CCSC[C@@H](C(=O)N[C@@H](CCCNC(=N)N)C(N)=O)NC(=O)[C@H](CCCNC(=N)N)NC1=O
notes: as for B1
